From US7851165B2, “Screening compounds for activity in modulating chloride ion transport” (Pharmos Bioscience A/S, priority 2005, dated 2010)

T1: lamp-2, endogenous, from solubilized mouse brain membranes (mouse, UniProt P17047 26-415, limits assumed)
T1 construct: Specificity control in the brain co-immunoprecipitation
T1 sequence (looked up): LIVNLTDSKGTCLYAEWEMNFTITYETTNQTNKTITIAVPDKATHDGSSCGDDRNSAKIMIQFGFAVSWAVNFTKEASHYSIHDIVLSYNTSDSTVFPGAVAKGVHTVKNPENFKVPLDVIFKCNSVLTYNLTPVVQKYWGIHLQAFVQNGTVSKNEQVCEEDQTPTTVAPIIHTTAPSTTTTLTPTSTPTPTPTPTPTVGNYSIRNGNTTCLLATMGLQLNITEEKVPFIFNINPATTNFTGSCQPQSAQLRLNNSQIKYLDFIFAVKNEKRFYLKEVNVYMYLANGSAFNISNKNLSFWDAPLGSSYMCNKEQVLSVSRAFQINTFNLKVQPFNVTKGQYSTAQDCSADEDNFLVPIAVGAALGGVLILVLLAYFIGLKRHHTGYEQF

T2: ClC-6, endogenous, from solubilized mouse brain membranes (mouse, UniProt O35454 1-870)
T2 construct: Specificity control in the brain co-immunoprecipitation; also called CIC-6
T2 sequence (looked up): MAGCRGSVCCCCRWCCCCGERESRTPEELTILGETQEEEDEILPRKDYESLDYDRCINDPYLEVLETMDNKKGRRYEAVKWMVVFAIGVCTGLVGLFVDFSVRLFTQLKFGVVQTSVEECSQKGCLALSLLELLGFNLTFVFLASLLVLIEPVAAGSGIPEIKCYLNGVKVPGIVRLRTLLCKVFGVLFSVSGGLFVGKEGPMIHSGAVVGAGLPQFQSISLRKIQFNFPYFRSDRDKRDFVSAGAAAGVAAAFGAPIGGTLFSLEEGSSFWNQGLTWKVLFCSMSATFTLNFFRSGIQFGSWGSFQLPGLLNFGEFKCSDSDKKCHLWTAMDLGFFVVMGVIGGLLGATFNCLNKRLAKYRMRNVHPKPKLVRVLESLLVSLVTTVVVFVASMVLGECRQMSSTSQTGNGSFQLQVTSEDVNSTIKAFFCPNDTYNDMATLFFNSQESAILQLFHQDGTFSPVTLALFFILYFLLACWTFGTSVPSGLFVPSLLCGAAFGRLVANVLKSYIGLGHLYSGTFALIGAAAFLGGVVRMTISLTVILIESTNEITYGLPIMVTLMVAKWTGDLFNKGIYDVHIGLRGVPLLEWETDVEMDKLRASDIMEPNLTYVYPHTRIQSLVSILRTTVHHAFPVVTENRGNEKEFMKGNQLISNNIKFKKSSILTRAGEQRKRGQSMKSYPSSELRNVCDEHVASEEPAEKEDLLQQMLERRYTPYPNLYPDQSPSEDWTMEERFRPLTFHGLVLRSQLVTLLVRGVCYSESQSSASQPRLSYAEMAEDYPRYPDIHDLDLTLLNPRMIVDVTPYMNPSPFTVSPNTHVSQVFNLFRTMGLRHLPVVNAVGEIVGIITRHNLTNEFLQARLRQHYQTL

T3: ClC-3, endogenous, from solubilized mouse brain membranes (mouse, UniProt P51791 1-818, limits assumed)
T3 construct: Specificity control in the brain co-immunoprecipitation; also called CIC-3
T3 sequence (looked up): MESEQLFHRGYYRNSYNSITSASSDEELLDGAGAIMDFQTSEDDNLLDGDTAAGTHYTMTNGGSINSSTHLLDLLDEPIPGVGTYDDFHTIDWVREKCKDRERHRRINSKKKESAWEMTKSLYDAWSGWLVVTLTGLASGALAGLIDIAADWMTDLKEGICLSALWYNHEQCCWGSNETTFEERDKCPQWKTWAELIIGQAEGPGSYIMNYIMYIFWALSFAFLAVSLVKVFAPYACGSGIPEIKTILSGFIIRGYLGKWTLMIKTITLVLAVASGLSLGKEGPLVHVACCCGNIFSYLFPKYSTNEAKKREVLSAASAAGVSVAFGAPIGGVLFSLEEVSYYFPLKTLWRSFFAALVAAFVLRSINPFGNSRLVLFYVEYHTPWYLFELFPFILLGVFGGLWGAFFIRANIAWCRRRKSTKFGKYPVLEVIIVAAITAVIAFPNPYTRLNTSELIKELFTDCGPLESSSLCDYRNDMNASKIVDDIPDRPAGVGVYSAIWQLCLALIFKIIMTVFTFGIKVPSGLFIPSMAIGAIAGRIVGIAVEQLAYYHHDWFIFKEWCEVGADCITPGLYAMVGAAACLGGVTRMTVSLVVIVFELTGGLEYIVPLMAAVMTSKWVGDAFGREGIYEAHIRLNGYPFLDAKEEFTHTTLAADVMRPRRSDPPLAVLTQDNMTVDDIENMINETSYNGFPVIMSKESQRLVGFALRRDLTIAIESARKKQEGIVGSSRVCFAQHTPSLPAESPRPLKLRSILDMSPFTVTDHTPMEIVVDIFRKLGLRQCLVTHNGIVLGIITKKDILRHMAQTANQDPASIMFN


Legend:
[1] = tested on: Ostm1; test: Western blot of Ostm1 species after incubating fibroblasts with protease inhibitors; assay type: cell-based; settings: fibroblasts incubated with protease inhibitor, FIG. 1 part (d)
[2] = target: T1, lamp-2, endogenous, from solubilized …; test: co-immunoprecipitation from solubilized mouse brain membranes, Western blot
From the text: (§1) ClC-7 and Ostm1 can be co-immunoprecipitated using endogenous material (FIG. part (d)) or overexpressed proteins (FIG. 6). […] Solubilized brain membranes from the genotypes indicated were directly loaded on the gel (input, lanes 1-3), or first immunoprecipitated with ClC-7 (lanes 4,5) or Ostm1 antibodies (lanes 6,7).
(§2) Ostm1 or ClC-7 antibodies were crosslinked to protein A sepharose by dimethylpimelimidate. Brain membranes were pelleted and solubilized in lysis buffer (MES buffered saline pH 6.5, 1% Triton X-100, 2.5 mM CaCl_2, 2.5 mM MgCl_2). Non-solubilized material was removed by centrifugation at 70,000×g. Samples were incubated with protein A sepharose-antibody complexes for 2 h at 4° C. and washed 4× with lysis buffer. After elution with 100 μl 0.1 M glycine/Cl, pH 2.8, samples were neutralized and denatured using SDS sample buffer. Equivalent amounts of lysate and precipitate were separated by SDS-PAGE.
(§3) Resulting Western blots were probed for the proteins indicated at right. Arrowheads, specific Ostm1 bands; *, non-specific bands. Equivalent amounts of lysates and precipitates were loaded.

[3] = target: T2, ClC-6, endogenous, from solubilized …; test: as above
From the text: as §1, §2, §3

[4] = target: T3, ClC-3, endogenous, from solubilized …; test: as above
From the text: as §1, §2, §3

binding result [2]	binding result [3]	binding result [4]	Molecule	proportion of the large (~80 kD) Ostm1 species versus the smaller ones [1]
			CC(=O)N[C@@H](CC(C)C)C(=O)N[C@@H](CC(C)C)C(=O)N[C@H](C=O)CCCNC(=N)N [leupeptin]	increased the proportion of the large Ostm1 species
no binding	no binding	no binding	Ostm1 (Osteopetrosis-associated transmembrane protein 1), endogenous, from solubilized mouse brain membranes (other, UniProt Q8BGT0 35-338, looked up, N-linked glycosylation of the luminal domain, Endogenous protein immunoprecipitated from Triton X-100 solubilized mouse brain membranes; also called product of the OSTM1 gene) ALPFTSSRHPGFADLLSEQQLLEVQDLTLSLLQGGGLGPLSLLPPDLPDLEPECRELLMDFANSSAELTACMVRSARPVRLCQTCYPLFQQVAIKMDNISRNIGNTSEGPRCGGSLLTADRMQIVLMVSEFFNSTWQEANCANCLTNNGEDLSNNTEDFLSLFNKTLACFEHNLQGHTYSLLPPKNYSEVCRNCKEAYKNLSLLYSQMQKLNGLENKAEPETHLCIDVEDAMNITRKLWSRTFNCSVTCSDTVSVVAVSVFILFLPVVFYLSSFLHSEQKKRKLILPKRLKSSTSFANIQENAT	
